Legend:
MS2 coat protein [1] = assay: apparent KD of MS2 coat protein, switch ON state; designed switch direction (-1 OFF switch, 1 ON switch): -1; higher = weaker reporter binding; conditions: FMN input: 0 or 200 uM; Eterna round: R93 (includes R88 designs)
Summary of the method: (§1)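 Illumina sequencing clusters served as templates for on-chip transcription of the designed RNA switches. SNAP-549-labelled MS2 coat protein was then titrated in twofold steps from 0.7 or 1.5 nM to 3 µM, allowing 0.8–1.5 h per step at first and 10–20 min per step later. The buffer held 100 mM Tris-HCl pH 7.5, 80 mM KCl and 4 mM MgCl2, without or with constant ligand. Apparent KD is the median per design of normalised cluster binding-curve fits.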

MS2 coat protein [2] = assay: apparent KD of MS2 coat protein, switch OFF state (with FMN for OFF switches, without FMN for ON switches); designed switch direction (-1 OFF switch, 1 ON switch): -1; higher = weaker reporter binding; conditions: FMN input: 0 or 200 uM; Eterna round: R93 (includes R88 designs)
Summary of the method: as §1

| Sequence | apparent KD of MS2 coat protein (MS2 coat protein [1]) [µM] | apparent KD of MS2 coat protein (MS2 coat protein [2]) [µM] |
| --- | --- | --- |
| CAGUACUGAGGAUAUACAUGAGGAUCACCCAUGUGGGAAAGCUACGAAAGUAGCAAAUGUAGAAGGCAGUACUG [Ex3: 805] | 0.153 | 0.0987 |
| CCCAUGUCAGGAUAUCAGUAGUAAAAAAAAAAAAUUACUACUGAGAAGGGACAUGAGGAUCACCCAUGUACCUU [EX4 319: Super Stable 19] | 0.0721 | 0.0681 |
| CCCUAGUCAGGAUAUACAAACAUGUCAAAAGACGUGAAAAAACAUGAGGAUCACCCAUGUAGAAGGGACUAGGG [Mat - Exclusion 2 - JL mod - D19] | 0.0153 | 0.0152 |
| CCUAUGUCAGGAUAUCAGUAGUAAAAAAAAAAAAUUACUACUGAGAAGGGACAUGAGGAUCACCCAUGUUCAAA [EX4 313: Super Stable 13] | 0.0424 | 0.0664 |
| CCUGUGUGAGGAUAUGGUAAAAAAAAAAAAAAAUAGCUCCUCCAGAAGGCACAUGAGGAUCACCCAUGUCGUGG [Jolly's Folly 16 - Jieux - Exclusion 4] | 0.0376 | 0.0739 |
| CUCAAGUAAGGAUAUCGAAGAAAAGAAGAGAAAGAAAAGAACGAGAAGGUACAUGAGGAUCACCCAUGUAAGAA [EteRNA is fun!] | 0.0324 | 0.028 |
| CUCAAGUAAGGAUAUCUAAGAAAAGAAGAGAAAGAAAAGAAAGAGAAGGUACAUGAGGAUCACCCAUGUAAGAA [EteRNA is fun!] | 0.0344 | 0.0299 |
| CUCAAGUAAGGAUAUGAAAGAAAAGAAGAGAAAGAAAAGAAUCAGAAGGUACAUGAGGAUCACCCAUGUAAGAA [EteRNA is fun!] | 0.0303 | 0.0231 |
| CUCAAGUAAGGAUAUGCAAGAAAAGAAAAGAAAGAAAAGAAGCAGAAGGUACAUGAGGAUCACCCAUGUAAGAA [EteRNA is fun!] | 0.0254 | 0.0423 |
| CUCAUGUGAGGAUAUCAGUAGUAAAAAAAAAAAAUUACUACUGAGAAGGCACAUGAGGAUCACCCAUGUACCUU [EX4 326: Super Stable 26] | 0.0377 | 0.0426 |
| CUCUAGUAAGGAUAUCGAAGAAAAGAAAAGAAAGAAAAGAACGAGAAGGUACAUGAGGAUCACCCAUGUAAGAA [EteRNA is fun!] | 0.0345 | 0.019 |
| CUCUAGUUAGGAUAUCGAAGAAAAGAAAAGAAAGAAAAGAACGAGAAGGAACAUGAGGAUCACCCAUGUAAGAA [EteRNA is fun!] | 0.0291 | 0.028 |
| GAAAAGUGAGGAUAUUCGGAAGGGAAAGCGCAAACCCAACCGAAGAAGGCACAUGAGGAUCACCCAUGUGGAAG [Mat - Exaclusion 4 - Eli mod - D58] | 0.0236 | 0.0287 |
| GAAACACAUGAGGAUCACCCAUGUCAGGAUAUUCAAACAAAAACAAAACAAAACAAACGAAGAAGGGACAAAAG [Mat - Same state - Mayanna Mod - D102] | 0.027 | 0.0326 |
| GAAGAACAUGAGGAUCACCCAUGUGAGGAUAUACAGAAGGGAAUAAAAUAACCUGAAAGUAGAAGGCACAAGAA [Ex 1 May 41] | 0.0457 | 0.0658 |
| GAAUGAUGAGGAUAUACAUGAGGAUCACCCAUGUGUAAAAAUAAAUACACAAAAGAAAGUAGAAGGCAUCAAAG [Mat - Exclusion 3 - Mayanna mod - D120] | 0.0229 | 0.099 |
| GAGAGGGCAGGAUAUGCGGAGAGAGAGAGAGAGAGAGAGAGACAUGAGGAUCACCCAUGUAGAAGGGCCGAGAG [salish99-ex2-09] | 0.0623 | 0.0281 |

| Sequence | apparent KD of MS2 coat protein (MS2 coat protein [1]) [µM] | apparent KD of MS2 coat protein (MS2 coat protein [2]) [µM] |
| --- | --- | --- |
| GAUCCACAUGAGGAUCACCCAUGUAAGGAUAUUUAAAACCGGAGGAAACCCUCCGAAGAAAGAAGGUACAAAAC [Atceabi] | 0.0146 | 0.0145 |
| GCUGUCGUAGGAUAUACAUGAGGAUCACCCAUGUGAGAGAAAAAAGUGAGAAAGAAAAGUAGAAGGACGGUAGG [salish99-ex3-105] | 0.0375 | 0.0431 |
| GGAAAACAUGAGGAUCACCCAUGUAAGGAUAUGCAAAAAAAAGGAUAUAGAAGGAAAAGCAGAAGGUACAAAGG [salish99-ex1-26] | 0.0308 | 0.0382 |
| GGAAAACAUGAGGAUCACCCAUGUAAGGAUAUGCUAAAAAAAAAAAAAAAAAAAAAAUGCAGAAGGUACUAAAG [Amethyst 18] | 0.034 | 0.118 |
| GGAAAACAUGAGGAUCACCCAUGUCAGGAUAUACAAAGAAAGAAAGAAAAGAAAGAAAGUAGAAGGGACAAAAG [Amethyst 15] | 0.0271 | 0.0319 |
| GGAAAACAUGAGGAUCACCCAUGUGAGGAUAUCGAUGUCCAAAAGAAAGUGCGGGACUCGAGAAGGCACUUGGA [salish99-ex1-36] | 0.0563 | 0.0458 |
| GGGUCACAUGAGGAUCACCCAUGUAAGGAUAUGCUAGGGAUGGAAACCAUUCCGCAACGCAGAAGGUACUAAAG [Janelle Amethyst 18 Mod 12 - Jieux - Exclusion 1] | 0.0504 | 0.105 |
| GGGUCACAUGAGGAUCACCCAUGUAAGGAUAUGCUAGGGAUGGAAGCCAGGCCGCAACGCAGAAGGUACUAAAG [Janelle Amethyst 18 Mod 14 - Jieux - Exclusion 1] | 0.0551 | 0.0547 |
| GGUUGGCGAGGAUAUACAUGAGGAUCACCCAUGUGAGAGAAAAAAGUAAGAAAGAAAAGUAGAAGGCGCUGACG [salish99-ex3-51] | 0.0307 | 0.0878 |
| GGUUGGCGAGGAUAUACAUGAGGAUCACCCAUGUGAGAGAAAAAAGUGAGAAUGAAAAGUAGAAGGCGCUGACG [salish99-ex3-35] | 0.0462 | 0.215 |
| GUCGUGUGAGGAUAUGGAAAGUAGAAGUGGCGGUCGAAAACCUAGAAGGCACAUGAGGAUCACCCAUGUAAGAG [JR_Exc004_Sub1708] | 0.057 | 0.0543 |
| GUGUACAGAGGAUAUACAUGAGCAUGGAAUCAUGCAGGAUCACAUGAGGAUCACCCAUGUAGAAGGCUGUACAC [LROPPY Exclusion 2 - v06_mod Brourd] | 0.0669 | 0.0398 |
| GUGUACAGAGGAUAUACAUGAGCUAGGAAACUAGCAGGAUCACAUGAGGAUCACCCAUGUAGAAGGCUGUACAC [Ex2: 731] | 0.0425 | 0.0155 |
| GUGUACAGAGGAUAUACUGGAGCAUGGAAACAUGCAAGAUCACAUGAGGAUCACCCAUGUAGAAGGCUGUACAC [Ex2: 742] | 0.119 | 0.0218 |
| GUGUACAGAGGAUAUAUAUGAGCAUGGAAACAUGCAUCCUCACAUGAGGAUCACCCAUGUAGAAGGCUGUACAC [Ex2: 704] | 0.624 | 0.0413 |
| UAAAAGGUAGGAUAUACUUGGAAGACCUGCCAACAAUAACAACAUGAGGAUCACCCAUGUAGAAGGACCAAUAU [Edtiatlema] | 0.0232 | 0.0195 |
| UACGUAUGAGGAUAUACAAACAGAAAAAUCAGACAUAACUGACAUGAGGAUCACCCAUGUAGAAGGCAUAUACA [JR_Exc002_Sub904] | 0.0253 | 0.0174 |

— the supplement of paper PMC9170038
